Laboratory results published in the supplement of paper PMC10567573.

B1: ZNF75A (parent)
chain: RTHTGEQPYTCSICRRNFSRRSSL

Variants of: B1
Experiment: protein stability index of a GFP-peptide fusion (GPS, HEK-293T) (PSI 1-6); higher = more stable
Settings: c terminus: a fixed tail appended
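Further: lentivirally expressed fusions sorted by FACS into six bins by GFP to DsRed ratio, PSI derived from sequencing read proportions per bin multiplied by bin number.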

**Q.** For RTHTGEQPYTCSICTRNFSRRSSL [R15T], which protein stability index is on record?
**A.** 2.34

**Q.** Which protein stability index does the source give for RTHTGEQPYTCSICERNFSRRSSL [R15E] here?
**A.** 2.03

**Q.** Which protein stability index does the source give for RTHTGEQPYTCSICYRNFSRRSSL [R15Y] here?
**A.** 1.89

**Q.** For RTHTGEQPYTCSICNRNFSRRSSL [R15N], which protein stability index is on record?
**A.** 2.84

**Q.** For RTHTGEQPYTCSICQRNFSRRSSL [R15Q], which protein stability index is on record?
**A.** 2.25

**Q.** With RTHTGEQPYTCSICLRNFSRRSSL [R15L] as the variant, how does the protein stability index read?
**A.** 1.54

**Q.** Which protein stability index does the source give for RTHTGEQPYTCSICKRNFSRRSSL [R15K] here?
**A.** 2.86

**Q.** With RTHTGEQPYTCSICARNFSRRSSL [R15A] as the variant, how does the protein stability index read?
**A.** 2.13

**Q.** With RTHTGEQPYTCSICDRNFSRRSSL [R15D] as the variant, how does the protein stability index read?
**A.** 2.02

**Q.** With RTHTGEQPYTCSICCRNFSRRSSL [R15C] as the variant, how does the protein stability index read?
**A.** 2

**Q.** Which protein stability index does the source give for RTHTGEQPYTCSICVRNFSRRSSL [R15V] here?
**A.** 1.7

**Q.** With RTHTGEQPYTCSICMRNFSRRSSL [R15M] as the variant, how does the protein stability index read?
**A.** 1.6

**Q.** With RTHTGEQPYTCSICHRNFSRRSSL [R15H] as the variant, how does the protein stability index read?
**A.** 2.49

**Q.** With RTHTGEQPYTCSICSRNFSRRSSL [R15S] as the variant, how does the protein stability index read?
**A.** 2.47

**Q.** For RTHTGEQPYTCSICGRNFSRRSSL [R15G], which protein stability index is on record?
**A.** 2.93

**Q.** For RTHTGEQPYTCSICIRNFSRRSSL [R15I], which protein stability index is on record?
**A.** 2.32

**Q.** Which protein stability index does the source give for RTHTGEQPYTCSICFRNFSRRSSL [R15F] here?
**A.** 1.85

**Q.** With RTHTGEQPYTCSICWRNFSRRSSL [R15W] as the variant, how does the protein stability index read?
**A.** 2.02

**Q.** For RTHTGEQPYTCSICPRNFSRRSSL [R15P], which protein stability index is on record?
**A.** 3.19

**Q.** For RTHTGEQPYTCSICRHNFSRRSSL [R16H], which protein stability index is on record?
**A.** 1.59

**Q.** With RTHTGEQPYTCSICRNNFSRRSSL [R16N] as the variant, how does the protein stability index read?
**A.** 1.99

**Q.** Which protein stability index does the source give for RTHTGEQPYTCSICRCNFSRRSSL [R16C] here?
**A.** 1.34

**Q.** With RTHTGEQPYTCSICRVNFSRRSSL [R16V] as the variant, how does the protein stability index read?
**A.** 1.79

**Q.** With RTHTGEQPYTCSICRINFSRRSSL [R16I] as the variant, how does the protein stability index read?
**A.** 1.88

**Q.** Which protein stability index does the source give for RTHTGEQPYTCSICRLNFSRRSSL [R16L] here?
**A.** 1.27

**Q.** Which protein stability index does the source give for RTHTGEQPYTCSICRFNFSRRSSL [R16F] here?
**A.** 1.81

**Q.** Which protein stability index does the source give for RTHTGEQPYTCSICRDNFSRRSSL [R16D] here?
**A.** 1.78

**Q.** With RTHTGEQPYTCSICRKNFSRRSSL [R16K] as the variant, how does the protein stability index read?
**A.** 2.92

**Q.** Which protein stability index does the source give for RTHTGEQPYTCSICRENFSRRSSL [R16E] here?
**A.** 2.53

**Q.** With RTHTGEQPYTCSICRGNFSRRSSL [R16G] as the variant, how does the protein stability index read?
**A.** 2.05

**Q.** With RTHTGEQPYTCSICRQNFSRRSSL [R16Q] as the variant, how does the protein stability index read?
**A.** 2.99

**Q.** For RTHTGEQPYTCSICRYNFSRRSSL [R16Y], which protein stability index is on record?
**A.** 1.59

**Q.** For RTHTGEQPYTCSICRSNFSRRSSL [R16S], which protein stability index is on record?
**A.** 1.86

**Q.** With RTHTGEQPYTCSICRANFSRRSSL [R16A] as the variant, how does the protein stability index read?
**A.** 1.99

**Q.** Which protein stability index does the source give for RTHTGEQPYTCSICRPNFSRRSSL [R16P] here?
**A.** 2.3

**Q.** Which protein stability index does the source give for RTHTGEQPYTCSICRMNFSRRSSL [R16M] here?
**A.** 2.43

**Q.** For RTHTGEQPYTCSICRTNFSRRSSL [R16T], which protein stability index is on record?
**A.** 2.34

**Q.** Which protein stability index does the source give for RTHTGEQPYTCSICRWNFSRRSSL [R16W] here?
**A.** 1.37

**Q.** With RTHTGEQPYTCSICRRKFSRRSSL [N17K] as the variant, how does the protein stability index read?
**A.** 3.78

**Q.** With RTHTGEQPYTCSICRRAFSRRSSL [N17A] as the variant, how does the protein stability index read?
**A.** 3.22

**Q.** With RTHTGEQPYTCSICRRYFSRRSSL [N17Y] as the variant, how does the protein stability index read?
**A.** 2.63

**Q.** For RTHTGEQPYTCSICRREFSRRSSL [N17E], which protein stability index is on record?
**A.** 2.19

**Q.** For RTHTGEQPYTCSICRRSFSRRSSL [N17S], which protein stability index is on record?
**A.** 2.74

**Q.** With RTHTGEQPYTCSICRRTFSRRSSL [N17T] as the variant, how does the protein stability index read?
**A.** 3.5

**Q.** With RTHTGEQPYTCSICRRIFSRRSSL [N17I] as the variant, how does the protein stability index read?
**A.** 2.18

**Q.** With RTHTGEQPYTCSICRRVFSRRSSL [N17V] as the variant, how does the protein stability index read?
**A.** 2.62

**Q.** Which protein stability index does the source give for RTHTGEQPYTCSICRRLFSRRSSL [N17L] here?
**A.** 1.88

**Q.** For RTHTGEQPYTCSICRRQFSRRSSL [N17Q], which protein stability index is on record?
**A.** 3.17

**Q.** For RTHTGEQPYTCSICRRWFSRRSSL [N17W], which protein stability index is on record?
**A.** 2.46

**Q.** With RTHTGEQPYTCSICRRCFSRRSSL [N17C] as the variant, how does the protein stability index read?
**A.** 3.01

**Q.** Which protein stability index does the source give for RTHTGEQPYTCSICRRDFSRRSSL [N17D] here?
**A.** 2.3

**Q.** For RTHTGEQPYTCSICRRHFSRRSSL [N17H], which protein stability index is on record?
**A.** 2.61

**Q.** For RTHTGEQPYTCSICRRRFSRRSSL [N17R], which protein stability index is on record?
**A.** 2.99

**Q.** Which protein stability index does the source give for RTHTGEQPYTCSICRRFFSRRSSL [N17F] here?
**A.** 2.36

**Q.** Which protein stability index does the source give for RTHTGEQPYTCSICRRMFSRRSSL [N17M] here?
**A.** 2.3

**Q.** For RTHTGEQPYTCSICRRGFSRRSSL [N17G], which protein stability index is on record?
**A.** 2.75

**Q.** With RTHTGEQPYTCSICRRNFSRVSSL [R21V] as the variant, how does the protein stability index read?
**A.** 1.95

**Q.** Which protein stability index does the source give for RTHTGEQPYTCSICRRNFSRWSSL [R21W] here?
**A.** 2.69

**Q.** Which protein stability index does the source give for RTHTGEQPYTCSICRRNFSRNSSL [R21N] here?
**A.** 2.72

**Q.** Which protein stability index does the source give for RTHTGEQPYTCSICRRNFSRFSSL [R21F] here?
**A.** 1.95

**Q.** For RTHTGEQPYTCSICRRNFSRCSSL [R21C], which protein stability index is on record?
**A.** 2.24

**Q.** Which protein stability index does the source give for RTHTGEQPYTCSICRRNFSRHSSL [R21H] here?
**A.** 2.12

**Q.** With RTHTGEQPYTCSICRRNFSRTSSL [R21T] as the variant, how does the protein stability index read?
**A.** 2.84

**Q.** For RTHTGEQPYTCSICRRNFSRPSSL [R21P], which protein stability index is on record?
**A.** 1.97

**Q.** With RTHTGEQPYTCSICRRNFSRASSL [R21A] as the variant, how does the protein stability index read?
**A.** 1.64

**Q.** With RTHTGEQPYTCSICRRNFSRQSSL [R21Q] as the variant, how does the protein stability index read?
**A.** 3.09

**Q.** With RTHTGEQPYTCSICRRNFSRGSSL [R21G] as the variant, how does the protein stability index read?
**A.** 1.72

**Q.** For RTHTGEQPYTCSICRRNFSRLSSL [R21L], which protein stability index is on record?
**A.** 1.79

**Q.** With RTHTGEQPYTCSICRRNFSRISSL [R21I] as the variant, how does the protein stability index read?
**A.** 1.61

**Q.** For RTHTGEQPYTCSICRRNFSRSSSL [R21S], which protein stability index is on record?
**A.** 1.58

**Q.** For RTHTGEQPYTCSICRRNFSRDSSL [R21D], which protein stability index is on record?
**A.** 2.73

**Q.** For RTHTGEQPYTCSICRRNFSRYSSL [R21Y], which protein stability index is on record?
**A.** 1.39

**Q.** Which protein stability index does the source give for RTHTGEQPYTCSICRRNFSRKSSL [R21K] here?
**A.** 2.5

**Q.** Which protein stability index does the source give for RTHTGEQPYTCSICRRNFSRMSSL [R21M] here?
**A.** 2.37

**Q.** For RTHTGEQPYTCSICRRNFSRESSL [R21E], which protein stability index is on record?
**A.** 3.51

**Q.** With RTHTGEQPYTCSICRRNFFRRSSL [S19F] as the variant, how does the protein stability index read?
**A.** 2.59

**Q.** With RTHTGEQPYTCSICRRNFHRRSSL [S19H] as the variant, how does the protein stability index read?
**A.** 2.62

**Q.** Which protein stability index does the source give for RTHTGEQPYTCSICRRNFKRRSSL [S19K] here?
**A.** 2.91

**Q.** For RTHTGEQPYTCSICRRNFYRRSSL [S19Y], which protein stability index is on record?
**A.** 4.33

**Q.** For RTHTGEQPYTCSICRRNFCRRSSL [S19C], which protein stability index is on record?
**A.** 2.52

**Q.** Which protein stability index does the source give for RTHTGEQPYTCSICRRNFRRRSSL [S19R] here?
**A.** 2.99

**Q.** Which protein stability index does the source give for RTHTGEQPYTCSICRRNFIRRSSL [S19I] here?
**A.** 3.39

**Q.** For RTHTGEQPYTCSICRRNFARRSSL [S19A], which protein stability index is on record?
**A.** 2.04

**Q.** For RTHTGEQPYTCSICRRNFNRRSSL [S19N], which protein stability index is on record?
**A.** 3.59

**Q.** For RTHTGEQPYTCSICRRNFGRRSSL [S19G], which protein stability index is on record?
**A.** 2.68

**Q.** With RTHTGEQPYTCSICRRNFTRRSSL [S19T] as the variant, how does the protein stability index read?
**A.** 3.25

**Q.** With RTHTGEQPYTCSICRRNFMRRSSL [S19M] as the variant, how does the protein stability index read?
**A.** 2.68

**Q.** With RTHTGEQPYTCSICRRNFLRRSSL [S19L] as the variant, how does the protein stability index read?
**A.** 2.51

**Q.** Which protein stability index does the source give for RTHTGEQPYTCSICRRNFVRRSSL [S19V] here?
**A.** 2.4

**Q.** For RTHTGEQPYTCSICRRNFWRRSSL [S19W], which protein stability index is on record?
**A.** 2.21

**Q.** For RTHTGEQPYTCSICRRNFQRRSSL [S19Q], which protein stability index is on record?
**A.** 2.72

**Q.** With RTHTGEQPYTCSICRRNFPRRSSL [S19P] as the variant, how does the protein stability index read?
**A.** 2.23

**Q.** For RTHTGEQPYTCSICRRNFERRSSL [S19E], which protein stability index is on record?
**A.** 3.05

**Q.** Which protein stability index does the source give for RTHTGEQPYTCSICRRNFDRRSSL [S19D] here?
**A.** 2.67
